B1: TCN-543 (5081_G23) (antibody, V domains shown)
VH: QVHLVQSGAEVRKPGDSVKVSCKTSGYTFSTYPVAWVRQVPGQGLEWMGWISTYNGNTNFAQNFQGRVTLTTDTTTNTAYMEVRSLKFDDTAVYYCARVEGSYRDFWNNQNRFDPWGQGTLVTVSS
VL: SYVLTQPPSVSVAPGQTARISCGGSNIGGKSVHWYQQKPGQAPVLVVYDDSGRPSGIPERFSGSNSGDTATLTISRVEAGDEADYFCQVWDNFGGVFGTGTKVTVL
B2: TCN-557 (5081_A04) (antibody, V domains shown)
VH: QVQLVQSGAEVKKPGASVKVSCKASGHTFTGYYIHWVRQAPGQGLEWMGWINPDSGATSSAQNFQGRVTMTGDTSSSTAYMELSRLSFDDTAVYYCARVLFTSPFDFWGEGTLVTVSS
VL: QAVVTQEPSLAVSPGGTVTLTCGSSTGAVTRGHYPYWFQQKPGQAPRALIYDSAGNRHSWTPARFSGSLLGGKAALTLSGAQPEDEAEYYCLLSYSGVWVFGGGTKLTVL

How the values were obtained:
Settings in all cases: remark: other sources report otherwise
[1] = molecular target: recombinant soluble homotrimeric HA of A/Wisconsin/67/05 (H3N2) (Influenza A virus A/Wisconsin/67/2005(H3N2)); assay: HA microarray, BCC supernatant
[2] = molecular target: recombinant soluble homotrimeric HA of A/Japan/305/57 (H2N2) (Influenza A virus A/Japan/305/1957(H2N2)); assay: HA microarray, BCC supernatant
[3] = molecular target: recombinant soluble homotrimeric HA of A/Solomon Islands/3/06 (H1N1) (Influenza A virus A/Solomon Islands/3/2006(H1N1)); assay: HA microarray, BCC supernatant
[4] = molecular target: recombinant soluble homotrimeric HA of A/northern shoveler/California/HKWF115/07 (H6) (Influenza A virus A/northern shoveler/California/HKWF115/2007(H6N1)); assay: HA microarray, BCC supernatant
[5] = molecular target: recombinant soluble homotrimeric HA of A/swine/Ontario/01911-2/99 (H4N6) (Influenza A virus A/Swine/Ontario/01911-2/99 (H4N6)); assay: HA microarray, BCC supernatant
[6] = molecular target: recombinant soluble homotrimeric HA of A/Hong Kong/2108/03 (H9N2) (Influenza A virus A/HK/2108/2003(H9N2)); assay: HA microarray, BCC supernatant
[7] = molecular target: recombinant soluble homotrimeric HA of A/Vietnam/1203/04 (H5N1) (Influenza A virus A/VietNam/1203/2004(H5N1)); assay: HA microarray, BCC supernatant
[8] = molecular target: recombinant soluble homotrimeric HA of A/Netherlands/219/03 (H7N7) (Influenza A virus A/Netherlands/219/03(H7N7)); assay: HA microarray, BCC supernatant
[9] = molecular target: recombinant homotrimeric HA A/Netherlands/219/03 H7N7 (Influenza A virus A/Netherlands/219/03(H7N7)); assay: protein microarray, purified IgG, trimeric HA
[10] = molecular target: recombinant homotrimeric HA A/Egypt/3300-NAMRU3/08 H5N1 (Influenza A virus A/Egypt/3300-NAMRU3/2008(H5N1)); assay: protein microarray, purified IgG, trimeric HA
[11] = molecular target: recombinant homotrimeric HA A/Indonesia/5/05 H5N1 (Influenza A virus A/Indonesia/5/2005(H5N1)); assay: protein microarray, purified IgG, trimeric HA
[12] = molecular target: recombinant homotrimeric HA A/Vietnam/1203/04 H5N1 (Influenza A virus A/VietNam/1203/2004(H5N1)); assay: protein microarray, purified IgG, trimeric HA
[13] = molecular target: recombinant homotrimeric HA A/Hong Kong/1073/99 H9N2 (Influenza A virus A/Hong Kong/1073/99 (H9N2)); assay: protein microarray, purified IgG, trimeric HA
[14] = molecular target: recombinant homotrimeric HA A/northern shoveler/California/HKWF115/07 H6N4 (Influenza A virus A/northern shoveler/California/HKWF115/2007(H6N1)); assay: protein microarray, purified IgG, trimeric HA
[15] = molecular target: recombinant homotrimeric HA A/Wisconsin/67/05 H3N2 (Influenza A virus A/Wisconsin/67/2005(H3N2)); assay: protein microarray, purified IgG, trimeric HA
[16] = molecular target: recombinant homotrimeric HA A/Hong Kong/156/97 H5N1 (Influenza A virus A/Hong Kong/156/97 (H5N1)); assay: protein microarray, purified IgG, trimeric HA
[17] = molecular target: recombinant homotrimeric HA A/Hong Kong/2108/03 H9N2 (Influenza A virus A/HK/2108/2003(H9N2)); assay: protein microarray, purified IgG, trimeric HA
[18] = molecular target: recombinant homotrimeric HA A/Japan/305/57 H2N2 (Influenza A virus A/Japan/305/1957(H2N2)); assay: protein microarray, purified IgG, trimeric HA
[19] = molecular target: recombinant homotrimeric HA A/Anhui/1/05 H5N1 (Influenza A virus A/Anhui/1/2005(H5N1)); assay: protein microarray, purified IgG, trimeric HA
[20] = molecular target: recombinant homotrimeric HA A/Solomon Islands/3/06 H1N1 (Influenza A virus A/Solomon Islands/3/2006(H1N1)); assay: protein microarray, purified IgG, trimeric HA
[21] = molecular target: recombinant homotrimeric HA A/South Carolina/1/18 H1N1 (Influenza A virus A/South Carolina/1/18 (H1N1)); assay: protein microarray, purified IgG, trimeric HA
[22] = molecular target: recombinant soluble homotrimeric HA of A/Indonesia/5/05 (H5N1) (Influenza A virus A/Indonesia/5/2005(H5N1)); assay: HA microarray, BCC supernatant
[23] = molecular target: recombinant soluble homotrimeric HA of A/Anhui/1/05 (H5N1) (Influenza A virus A/Anhui/1/2005(H5N1)); assay: HA microarray, BCC supernatant
[24] = molecular target: recombinant soluble homotrimeric HA of A/duck/Yangzhou/02/05 (H8N4) (Influenza A virus A/duck/Yangzhou/02/2005(H8N4)); assay: HA microarray, BCC supernatant
[25] = molecular target: recombinant soluble homotrimeric HA of A/chicken/Vietnam/NCVD-016/08 (H5N1) (Influenza A virus A/chicken/Vietnam/NCVD-016/2008(H5N1)); assay: HA microarray, BCC supernatant
[26] = molecular target: recombinant soluble homotrimeric HA of A/California/4/09 (H1N1) (Influenza A virus A/California/04/2009(H1N1)); assay: HA microarray, BCC supernatant
[27] = molecular target: recombinant homotrimeric HA A/chicken/Vietnam/NCVD-016/08 H5N1 (Influenza A virus A/chicken/Vietnam/NCVD-016/2008(H5N1)); assay: protein microarray, purified IgG, trimeric HA
[28] = molecular target: recombinant homotrimeric HA A/California/4/09 H1N1 (Influenza A virus A/California/04/2009(H1N1)); assay: protein microarray, purified IgG, trimeric HA

Binder	Trimeric HA Binding: RLU [1] [RLU]	Trimeric HA Binding: RLU [2] [RLU]	Trimeric HA Binding: RLU [3] [RLU]	Trimeric HA Binding: RLU [4] [RLU]	Trimeric HA Binding: RLU [5] [RLU]	Trimeric HA Binding: RLU [6] [RLU]	Trimeric HA Binding: RLU [7] [RLU]	Trimeric HA Binding: RLU [8] [RLU]	Trimeric HA Binding: RLU [9] [RLU]	Trimeric HA Binding: RLU [10] [RLU]	Trimeric HA Binding: RLU [11] [RLU]	Trimeric HA Binding: RLU [12] [RLU]	Trimeric HA Binding: RLU [13] [RLU]	Trimeric HA Binding: RLU [14] [RLU]	Trimeric HA Binding: RLU [15] [RLU]	Trimeric HA Binding: RLU [16] [RLU]	Trimeric HA Binding: RLU [17] [RLU]	Trimeric HA Binding: RLU [18] [RLU]	Trimeric HA Binding: RLU [19] [RLU]	Trimeric HA Binding: RLU [20] [RLU]	also measured
B1	1360	197	511	2130	428	131	488	661	162	580	91	640	9160	101	302	112	135	14000	601	18300	Trimeric HA Binding: RLU [21]: 259 RLU
B2	10200	43400	40700	24400	27000	35300	47300	6780	7250	23600	23300	25400	440	12600	327	22800	7660	28900	22000	22700	Trimeric HA Binding: RLU [22]: 45200 RLU; Trimeric HA Binding: RLU [23]: 46000 RLU; Trimeric HA Binding: RLU [24]: 50100 RLU; Trimeric HA Binding: RLU [25]: 45500 RLU; Trimeric HA Binding: RLU [26]: 17600 RLU; Trimeric HA Binding: RLU [27]: 25400 RLU; Trimeric HA Binding: RLU [28]: 1170 RLU; Trimeric HA Binding: RLU [21]: 3590 RLU

Source: US20150086555A1
